Literature values as cited in patent publication US20200069786A1, “COMPOSITION AND PROCESS FOR PREPARING VACCINE” (TREOS BIO ZRT., priority 2018, published 2020).
Where two headings read alike, the source gives them in different places.

Tested on: TSA
[1] = TSA expression rate in GASTRIC cancer
[2] = TSA expression rate in HEAD and NECK
[3] = TSA expression rate in Cervical cancer
[4] = TSA expression rate in MELANOMA
[5] = TSA expression rate in PROSTATE cancer
[6] = TSA expression rate in Esophageal
[7] = TSA expression rate in LUNG cancer

B1: MAGE-B6 (protein, UniProt Q8N7X4 1-407, looked up)
Melanoma-associated antigen B6: MPRGHKSKLRTCEKRQETNGQPQGLTGPQATAEKQEESHSSSSSSRACLGDCRRSSDASIPQESQGVSPTGSPDAVVSYSKSDVAANGQDEKSPSTSRDASVPQESQGASPTGSPDAGVSGSKYDVAANGQDEKSPSTSHDVSVPQESQGASPTGSPDAGVSGSKYDVAAEGEDEESVSASQKAIIFKRLSKDAVKKKACTLAQFLQKKFEKKESILKADMLKCVRREYKPYFPQILNRTSQHLVVAFGVELKEMDSSGESYTLVSKLGLPSEGILSGDNALPKSGLLMSLLVVIFMNGNCATEEEVWEFLGLLGIYDGILHSIYGDARKIITEDLVQDKYVVYRQVCNSDPPCYEFLWGPRAYAETTKMRVLRVLADSSNTSPGLYPHLYEDALIDEVERALRLRA
BRAIN
  TSA Expression Rate (ER): 6%

B2: TPTE (protein, UniProt P56180 1-551, looked up)
Putative tyrosine-protein …: MNESPDPTDLAGVIIELGPNDSPQTSEFKGATEEAPAKESPHTSEFKGAARVSPISESVLARLSKFEVEDAENVASYDSKIKKIVHSIVSSFAFGLFGVFLVLLDVTLILADLIFTDSKLYIPLEYRSISLAIALFFLMDVLLRVFVERRQQYFSDLFNILDTAIIVILLLVDVVYIFFDIKLLRNIPRWTHLLRLLRLIILLRIFHLFHQKRQLEKLIRRRVSENKRRYTRDGFDLDLTYVTERIIAMSFPSSGRQSFYRNPIKEVVRFLDKKHRNHYRVYNLCSERAYDPKHFHNRVVRIMIDDHNVPTLHQMVVFTKEVNEWMAQDLENIVAIHCKGGTDRTGTMVCAFLIASEICSTAKESLYYFGERRTDKTHSEKFQGVKTPSQKRYVAYFAQVKHLYNWNLPPRRILFIKHFIIYSIPRYVRDLKIQIEMEKKVVFSTISLGKCSVLDNITTDKILIDVFDGLPLYDDVKVQFFYSNLPTYYDNCSFYFWLHTSFIENNRLYLPKNELDNLHKQKARRIYPSDFAVEILFGEKMTSSDVVAGSD
BRAIN
  TSA Expression Rate (ER): 0%
HCC
  TSA Expression Rate (ER): 39%
LUNG
  TSA Expression Rate (ER): 36%
TSA expression rate in CRC
  Expression Rate (ER) %: 4%
[1]
  Expression Rate (ER) %: 0%
[2]
  Expression Rate (ER) %: 0%

B3: FAM46D (protein, UniProt Q8NEK8 1-389, looked up)
Terminal …: MSEIRFTNLTWDQVITLDQVLDEVIPIHGKGNFPTMEVKPKDIIHVVKDQLIGQGIIVKDARLNGSVASYILASHNGISYKDLDVIFGVELPGNEEFQVVKDAVLDCLLDFLPKDVKKEKLSPDIMKDAYVQKLVKVCNGHDCWSLISLSNNTGKNLELKFVSSLRRQFEFSVDSFQIVLDPMLDFYSDKNAKLTKESYPVVVAESMYGDFQEAMTHLQHKLICTRKPEEIRGGGLLKYCSLLVHGFKPACMSEIKNLERYMCSRFFIDFPHIEEQQKKIESYLHNHFIGEGMTKYDYLMTLHGVVNESTVCLMSYERRQILHLITMMALKVLGELNILPNTQKVTCFYQPAPYFAAEARYPIYVIPEPPPVSFQPYHPLHFRGSNGMS
BRAIN
  TSA Expression Rate (ER): 8%
LUNG
  TSA Expression Rate (ER): 50%
THYROID
  TSA Expression Rate (ER): 8%
TSA expression rate in CRC
  Expression Rate (ER) %: 22%
[3]
  Expression Rate (ER) %: 37%
[1]
  Expression Rate (ER) %: 11%
[4]
  Expression Rate (ER) %: 28%
[5]
  Expression Rate (ER) %: 33%

B4: TRAG-3 (protein, UniProt Q9Y5P2 1-127, looked up)
Chondrosarcoma-associated …: MWMGLIQLVEGVKRKDQGFLEKEFYHKTNIKMRCEFLACWPAFTVLGEAWRDQVDWSRLLRDAGLVKMSRKPRASSPLSNNHPPTPKRRGSGRHPLNPGPEALSKFPRQPGREKGPIKEVPGTKGSP
BRAIN
  TSA Expression Rate (ER): 0%
BREAST
  TSA Expression Rate (ER): 10%
HCC
  TSA Expression Rate (ER): 26%
LUNG
  TSA Expression Rate (ER): 54%
OVARIAN
  TSA Expression Rate (ER): 83%
TSA expression rate in CRC
  Expression Rate (ER) %: 7%
[6]
  Expression Rate (ER) %: 55%
[1]
  Expression Rate (ER) %: 10%

B5: NXF2 (protein, UniProt Q9GZY0 1-626, looked up)
Nuclear RNA export factor 2: MCSTLKKCGTYRTEVAECHDHGSTFQGRKKGGSSFRDNFDKRSCHYEHGGYERPPSHCQENDGSVEMRDVHKDQQLRHTPYSIRCERRMKWHSEDEIRITTWRNRKPPERKMSQNTQDGYTRNWFKVTIPYGIKYDKAWLMNSIQSHCSDRFTPVDFHYVRNRACFFVQDASAASALKDVSYKIYDDENQKICIFVNHSTAPYSVKNKLKPGQMEMLKLTMNKRYNVSQQALDLQNLRFDPDLMGRDIDIILNRRNCMAATLKIIERNFPELLSLNLCNNKLYQLDGLSDITEKAPKVKTLNLSKNKLESAWELGKVKGLKLEELWLEGNPLCSTFSDQSAYVSAIRDCFPKLLRLDGRELSAPVIVDIDSSETMKPCKENFTGSETLKHLVLQFLQQYYSIYDSGDRQGLLGAYHDEACFSLAIPFDPKDSAPSSLCKYFEDSRNMKTLKDPYLKGELLRRTKRDIVDSLSALPKTQHDLSSILVDVWCQTERMLCFSVNGVFKEVEGQSQGSVLAFTRTFIATPGSSSSLCIVNDELFVRDASPQETQSAFSIPVSTLSSSSEPSLSQEQQEMVQAFSAQSGMKLEWSQKCLQDNEWNYTRAGQAFTMLQTEGKIPAEAFKQIS
BRAIN
  TSA Expression Rate (ER): 18%
BREAST
  TSA Expression Rate (ER): 2%
THYROID
  TSA Expression Rate (ER): 20%
TSA expression rate in BLADDER cancer
  Expression Rate (ER) %: 19%
TSA expression rate in CRC
  Expression Rate (ER) %: 9%
[6]
  Expression Rate (ER) %: 17%
[1]
  Expression Rate (ER) %: 6%
[2]
  Expression Rate (ER) %: 5%
TSA expression rate in Kidney
  Expression Rate (ER) %: 0%
[7]
  Expression Rate (ER) %: 15%
[4]
  Expression Rate (ER) %: 8%
[5]
  Expression Rate (ER) %: 14%

B6: PASD1 (protein, UniProt Q8IV76 1-773, looked up)
Circadian clock protein PASD1: MKMRGEKRRDKVNPKSSQRKLNWIPSFPTYDYFNQVTLQLLDGFMITLSTDGVIICVAENISSLLGHLPAEIVGKKLLSLLPDEEKDEVYQKIILKFPLLNSETHIEFCCHLKRGNVEHGDSSAYENVKFIVNVRDICNEFPVVFSGLFSSHLCADFAACVPQEDRLYLVGNVCILRTQLLQQLYTSKAVSDEAVLTQDSDEEPFVGELSSSQGQRGHTSMKAVYVEPAAAAAAAAISDDQIDIAEVEQYGPQENVHMFVDSDSTYCSSTVFLDTMPESPALSLQDFRGEPEVNPLYRADPVDLEFSVDQVDSVDQEGPMDQQDPENPVAPLDQAGLMDPVDPEDSVDLGAAGASAQPLQPSSPVAYDIISQELELMKKLKEQLEERTWLLHDAIQNQQNALELMMDHLQKQPNTLRHVVIPDLQSSEAVPKKQQKQHAGQVKRPLPHPKDVKCFCGLSLSNSLKNTGELQEPCVAFNQQQLVQQEQHLKEQQRQLREQLQQLREQRKVQKQKKMQEKKKLQEQKMQEKKKLQEQRRQKKKKLQERKKWQGQMLQKEPEEEQQKQQLQEQPLKHNVIVGNERVQICLQNPRDVSVPLCNHPVRFLQAQPIVPVQRAAEQQPSGFYQDENCGQQEDESQSFYPEAYQGPPVNQLPLIDTSNSEAISSSSIPQFPITSDSTISTLETPQDYIRLWQELSDSLGPVVQVNTWSCDEQGTLHGQPTYHQVQVSEVGVEGPPDPQAFQGPAAYQPDQMRSAEQTRLMPAEQRDSNKPC
BRAIN
  TSA Expression Rate (ER): 31%
LUNG
  TSA Expression Rate (ER): 29%
THYROID
  TSA Expression Rate (ER): 25%
TSA expression rate in CRC
  Expression Rate (ER) %: 44%
[3]
  Expression Rate (ER) %: 58%
[1]
  Expression Rate (ER) %: 44%
[4]
  Expression Rate (ER) %: 44%
[5]
  Expression Rate (ER) %: 29%

B7: SP17 (protein, UniProt Q15506 1-151, looked up)
Sperm surface protein Sp17: MSIPFSNTHYRIPQGFGNLLEGLTREILREQPDNIPAFAAAYFESLLEKREKTNFDPAEWGSKVEDRFYNNHAFEEQEPPEKSDPKQEESQISGKEEETSVTILDSSEEDKEKEEVAAVKIQAAFRGHIAREEAKKMKTNSLQNEEKEENK
BRAIN
  TSA Expression Rate (ER): 13%
BREAST
  TSA Expression Rate (ER): 47%
HCC
  TSA Expression Rate (ER): 87%
OVARIAN
  TSA Expression Rate (ER): 62%
THYROID
  TSA Expression Rate (ER): 10%
[3]
  Expression Rate (ER) %: 61%
[6]
  Expression Rate (ER) %: 81%
[7]
  Expression Rate (ER) %: 12%
[5]
  Expression Rate (ER) %: 10%

B8: SLCO6A1 (protein, UniProt Q86UG4 1-719, looked up)
Solute carrier organic anion …: MFVGVARHSGSQDEVSRGVEPLEAARAQPAKDRRAKGTPKSSKPGKKHRYLRLLPEALIRFGGFRKRKKAKSSVSKKPGEVDDSLEQPCGLGCLVSTCCECCNNIRCFMIFYCILLICQGVVFGLIDVSIGDFQKEYQLKTIEKLALEKSYDISSGLVAIFIAFYGDRKKVIWFVASSFLIGLGSLLCAFPSINEENKQSKVGIEDICEEIKVVSGCQSSGISFQSKYLSFFILGQTVQGIAGMPLYILGITFIDENVATHSAGIYLGIAECTSMIGYALGYVLGAPLVKVPENTTSATNTTVNNGSPEWLWTWWINFLFAAVVAWCTLIPLSCFPNNMPGSTRIKARKRKQLHFFDSRLKDLKLGTNIKDLCAALWILMKNPVLICLALSKATEYLVIIGASEFLPIYLENQFILTPTVATTLAGLVLIPGGALGQLLGGVIVSTLEMSCKALMRFIMVTSVISLILLVFIIFVRCNPVQFAGINEDYDGTGKLGNLTAPCNEKCRCSSSIYSSICGRDDIEYFSPCFAGCTYSKAQNQKKMYYNCSCIKEGLITADAEGDFIDARPGKCDAKCYKLPLFIAFIFSTLIFSGFSGVPIVLAMTRVVPDKLRSLALGVSYVILRIFGTIPGPSIFKMSGETSCILRDVNKCGHTGRCWIYNKTKMAFLLVGICFLCKLCTIIFTTIAFFIYKRRLNENTDFPDVTVKNPKVKKKEETDL
BRAIN
  TSA Expression Rate (ER): 19%
BREAST
  TSA Expression Rate (ER): 7%
[6]
  Expression Rate (ER) %: 33%
[7]
  Expression Rate (ER) %: 7%
